Here are results for two molecules from article PMC10899793, “Toxin release by conditional remodelling of ParDE1 from Mycobacterium tuberculosis leads to gyrase inhibition” (Nucleic Acids Research, 2023).

For data set [1], the target named is Mycobacterium tuberculosis DNA gyrase holoenzyme GyrB2A2 (Mycobacterium tuberculosis) (UniProt P9WG47).
The target in data set [2] is T1, ParE1 toxin of Mycobacterium tuberculosis H37Rv (Mycobacterium tuberculosis H37Rv, UniProt P9WHG7 1-98).
T1 construct: also called Rv1959c; not shown: 6His-SUMO, N-terminal, cleaved
T1 sequence: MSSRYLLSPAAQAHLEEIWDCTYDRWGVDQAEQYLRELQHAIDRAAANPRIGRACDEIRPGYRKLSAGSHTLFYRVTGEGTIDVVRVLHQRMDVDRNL
Nature of the data set: SEC. The note with it: both partners purified.

The data set “crystal structure” concerns the molecule itself. Put plainly: crystal structure.
Data set [3] deals with T1, ParE1 toxin of Mycobacterium …. Put plainly: mass photometry. The note with it: both partners purified.

Broadly, the stoichiometry N is the number of molecules, sites or subunits per partner or assembly.

Mycobacterium tuberculosis DNA gyrase holoenzyme GyrB2A2 (Mycobacterium tuberculosis), sequence (P9WG47 whole entry, chain 1 of 2): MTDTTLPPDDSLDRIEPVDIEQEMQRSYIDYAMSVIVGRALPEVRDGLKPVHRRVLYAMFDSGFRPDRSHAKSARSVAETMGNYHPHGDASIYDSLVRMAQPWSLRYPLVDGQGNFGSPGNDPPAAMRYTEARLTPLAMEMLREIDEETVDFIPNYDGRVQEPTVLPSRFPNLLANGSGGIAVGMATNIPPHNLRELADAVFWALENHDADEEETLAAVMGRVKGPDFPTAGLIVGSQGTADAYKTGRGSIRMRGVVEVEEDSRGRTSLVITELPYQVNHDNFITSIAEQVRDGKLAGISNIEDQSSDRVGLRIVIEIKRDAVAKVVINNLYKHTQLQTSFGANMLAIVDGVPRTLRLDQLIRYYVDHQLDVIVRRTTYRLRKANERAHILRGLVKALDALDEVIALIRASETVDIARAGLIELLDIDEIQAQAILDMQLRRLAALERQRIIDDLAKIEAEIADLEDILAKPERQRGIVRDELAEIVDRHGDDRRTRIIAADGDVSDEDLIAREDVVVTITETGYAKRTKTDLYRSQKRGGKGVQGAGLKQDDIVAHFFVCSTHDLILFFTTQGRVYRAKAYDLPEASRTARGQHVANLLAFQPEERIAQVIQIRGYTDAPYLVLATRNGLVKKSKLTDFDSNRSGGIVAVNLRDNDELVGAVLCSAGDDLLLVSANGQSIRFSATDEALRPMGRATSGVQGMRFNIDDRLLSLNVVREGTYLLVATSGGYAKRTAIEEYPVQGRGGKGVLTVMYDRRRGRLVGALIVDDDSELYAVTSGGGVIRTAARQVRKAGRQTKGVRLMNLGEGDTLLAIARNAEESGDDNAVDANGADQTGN
Mycobacterium tuberculosis DNA gyrase holoenzyme GyrB2A2 (Mycobacterium tuberculosis), sequence (P9WG45 whole entry, chain 2 of 2, further chain): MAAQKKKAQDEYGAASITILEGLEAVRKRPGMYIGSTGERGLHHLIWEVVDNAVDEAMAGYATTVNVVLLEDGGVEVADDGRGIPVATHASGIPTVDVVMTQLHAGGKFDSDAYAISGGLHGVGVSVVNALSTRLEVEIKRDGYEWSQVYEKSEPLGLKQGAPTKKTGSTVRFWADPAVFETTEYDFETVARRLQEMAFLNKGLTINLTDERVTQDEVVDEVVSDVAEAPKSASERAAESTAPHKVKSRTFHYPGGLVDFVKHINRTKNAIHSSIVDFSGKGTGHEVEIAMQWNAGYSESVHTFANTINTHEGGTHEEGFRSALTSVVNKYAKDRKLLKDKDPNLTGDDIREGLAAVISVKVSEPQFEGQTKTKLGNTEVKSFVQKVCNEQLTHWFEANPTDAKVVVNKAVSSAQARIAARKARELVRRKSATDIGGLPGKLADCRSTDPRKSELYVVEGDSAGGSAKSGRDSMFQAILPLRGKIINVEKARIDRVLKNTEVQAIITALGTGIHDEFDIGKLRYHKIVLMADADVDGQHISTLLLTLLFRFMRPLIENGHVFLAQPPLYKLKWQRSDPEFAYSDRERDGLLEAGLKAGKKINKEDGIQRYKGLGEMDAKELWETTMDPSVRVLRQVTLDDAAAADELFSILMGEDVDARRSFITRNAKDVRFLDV

B1: ParE2 toxin of Mycobacterium tuberculosis H37Rv (natural protein)
chain: MTRRLRVHNGVEDDLFEAFSYYADAAPDQIDRLYNLFVDAVTKRIPQAPNAFAPLFKHYRHIYLRPFRYYVAYRTTDEAIDILAVRHGMENPNAVEAEISGRTFE
In the case of B1, the linearisation of supercoiled pSG483 in the M. tuberculosis gyrase DNA relaxation (cleavage) assay; ParE2 titrated against constant GyrB2A2 (31.25 nM); value at the highest concentration tested (% of substrate pSG483 linearised) in data set [1] is 50.

B2: ParD1 antitoxin of Mycobacterium tuberculosis H37Rv (natural protein)
chain: MGKNTSFVLDEHYSAFIDGEIAAGRYRSASEVIRSALRLLEDRETQLRALREALEAGERSGSSTPFDFDGFLGRKRADASRGR
notes: Antitoxin ParD1, gene parD1 (rv1960c), M. tuberculosis H37Rv; printed mass 9.21 kDa; residues are numbered up to R83; also called primary ParD1; auxiliary ParD1
B2: the “stoichiometry N” value is 2 ParD1 per ParE1 (4:2 heterohexamer) in data set [2], 4 in “crystal structure” and 1 ParD1 per ParE1 (2:2 heterotetramer) in data set [3].
